According to patent US20080146500A1, “Selective Vpac2 Receptor Peptide Agonists” (priority 2004, published 2008):
Like-named read-outs stand apart in the source and are kept apart here. Ends that are not written are not given here.

Legend:
[1] = Rat serum stability at 37 C, remaining active peptide estimated by EC50,4C/EC50,37C in CHO-VPAC2 cAMP assay; conditions: for Estimated serum stability (%): after 24 h in rat serum at 37 C
Description: The rat serum is stored at 4° C. until use and is used within two weeks.
On Day 0, two 100 μL aliquots of 10 μM peptide in rat serum are prepared by adding 10 μL peptide stock to 90 μL rat serum for each aliquot. 250 kIU aprotinin/mL is added to one of these aliquots. The aliquot is stored with aprotinin at 4° C. The aliquot is stored without aprotinin at 37° C. The aliquots are incubated for […].
On Day 1, after incubation of the aliquots prepared on day 0 for 24 hours, an incubation buffer containing PBS+1.3 mM CaCl2, 1.2 mM MgCl2, 2 mM glucose, and 0.25 mM IBMX is prepared. A plate with 11 serial 5× dilutions of peptide for the 4° C. and 37° C. aliquot is prepared for each peptide studied. […] The plate(s) are washed with cells twice in incubation buffer. The plates are allowed to hold 50 μL incubation media per well for 15 minutes. 50 μL solution per well is transferred to the cells from the plate prepared with 11 serial 5× dilutions of peptide for the 4° C. and 37° C. aliquot for each peptide studied, using the maximal concentrations that are indicated by the primary screen, in duplicate. This step dilutes the peptide concentration by a factor of two. The cells are incubated at room temperature for 30 minutes. The supernatant is removed. 40 μL/well of the DiscoveRx antibody/extraction buffer is added. The cells are incubated on the shaker (300 rpm) for 1 hour. Normal procedure with the DiscoveRx kit is followed. cAMP standards are included in column 12. EC50 values are determined from the cAMP assay data.

human VPAC1 = molecular target: T1, human VPAC1 (Homo sapiens, UniProt P32241); test: Filter binding assay, membranes from cells transiently transfected with human VPAC1, 125I-labeled VIP tracer; conditions: read-out: Human receptor binding (IC50; nM) VPAC1
T1 construct: expressed in transfected cells
T1 sequence (P32241 31-457): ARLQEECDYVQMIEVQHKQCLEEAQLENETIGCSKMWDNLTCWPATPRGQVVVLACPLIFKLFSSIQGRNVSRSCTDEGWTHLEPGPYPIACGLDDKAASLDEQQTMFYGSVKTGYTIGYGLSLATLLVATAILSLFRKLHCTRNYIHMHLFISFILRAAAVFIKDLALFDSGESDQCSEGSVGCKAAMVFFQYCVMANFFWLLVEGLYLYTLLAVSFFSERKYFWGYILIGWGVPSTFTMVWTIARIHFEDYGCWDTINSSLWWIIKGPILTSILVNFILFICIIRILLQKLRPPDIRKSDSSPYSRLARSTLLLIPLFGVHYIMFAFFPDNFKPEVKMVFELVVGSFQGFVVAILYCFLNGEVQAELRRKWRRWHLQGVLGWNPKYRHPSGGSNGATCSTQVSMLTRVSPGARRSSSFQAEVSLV
Description: For this assay, the solutions and equipment include:
Presoak solution: 0.5% Polyethyleneamine in Aqua dest.
Buffer for flushing filter plates: 25 mM HEPES pH 7.4
Blocking buffer: 25 mM HEPES pH 7.4; 0.2% protease free BSA
Assay buffer: 25 mM HEPES pH 7.4; 0.5% protease free BSA
Dilution and assay plate: PS-Microplate, U form
Filtration Plate Multiscreen FB Opaque Plate; […] Type B Glasfiber filter
In order to prepare the filter plates, the presoak solution is aspirated by vacuum filtration. The plates are flushed twice with 200 μL flush buffer. 200 μL blocking buffer is added to the filter plate. The filter plate is then incubated with 200 μL presoak solution for 1 hour at room temperature.
The assay plate is filled with […] (2.5 μg) suspended in assay buffer, 25 μL compound (agonist) in assay buffer, and 25 μL tracer (about 40000 cpm) in assay buffer. The filled plate is incubated for 1 hour with shaking.
The transfer from assay plate to filter plate is conducted. The blocking buffer is aspirated by vacuum filtration and washed two times with flush buffer. 90 μL is transferred from the assay plate to the filter plate. The 90 μL transferred from assay plate is aspirated and washed three times with 200 μL flush buffer. The plastic support is removed. It is dried for 1 hour at 60° C. 30 μL Microscint is added. The count is performed.
Values reported are single results or the mean of two or more independent runs.

human VPAC2 = molecular target: T2, human VPAC2 (Homo sapiens, UniProt P41587); test: Alpha screen in vitro potency: human VPAC2-R mediated cAMP generation; format: cell-based; conditions: single results or mean of two or more independent runs
T2 construct: expressed in transfected cells
T2 sequence (P41587 24-438): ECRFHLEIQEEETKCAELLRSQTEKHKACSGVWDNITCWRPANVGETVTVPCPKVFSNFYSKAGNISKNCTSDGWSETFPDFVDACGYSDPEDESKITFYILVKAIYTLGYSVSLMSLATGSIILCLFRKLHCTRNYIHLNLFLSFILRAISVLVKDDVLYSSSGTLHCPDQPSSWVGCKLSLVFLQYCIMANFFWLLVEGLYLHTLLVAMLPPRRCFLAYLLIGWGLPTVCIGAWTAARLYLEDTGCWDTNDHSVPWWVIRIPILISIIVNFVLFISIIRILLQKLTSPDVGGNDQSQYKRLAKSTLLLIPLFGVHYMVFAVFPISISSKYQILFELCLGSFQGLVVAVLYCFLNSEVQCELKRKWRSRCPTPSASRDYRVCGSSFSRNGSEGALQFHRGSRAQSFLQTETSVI

rat VPAC2 receptor = molecular target: T3, rat VPAC2 receptor (Rattus norvegicus, UniProt P35000); test: Rat VPAC2 in vitro potency (cAMP generation, DiscoveRx) in transiently transfected CHO-PO cells; format: cell-based; conditions: CHO-PO cells transiently transfected with rat VPAC2; read-out: rVPAC2 in vitro potency (cAMP generation) EC50
T3 construct: expressed in transfected cells; host or cells: CHO-PO cells, transient
T3 sequence (P35000 23-437): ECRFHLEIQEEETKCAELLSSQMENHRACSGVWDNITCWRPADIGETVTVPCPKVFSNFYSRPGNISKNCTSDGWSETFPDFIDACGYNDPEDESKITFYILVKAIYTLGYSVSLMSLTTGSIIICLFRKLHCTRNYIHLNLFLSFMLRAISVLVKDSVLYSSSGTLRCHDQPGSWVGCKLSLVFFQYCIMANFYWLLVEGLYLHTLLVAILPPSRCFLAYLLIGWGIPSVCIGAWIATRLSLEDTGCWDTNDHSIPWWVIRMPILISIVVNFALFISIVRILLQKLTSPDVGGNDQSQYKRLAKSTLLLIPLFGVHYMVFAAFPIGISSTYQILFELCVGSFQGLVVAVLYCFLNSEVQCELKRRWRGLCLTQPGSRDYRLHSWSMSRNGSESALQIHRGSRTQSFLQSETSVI
Description: Rat receptor selectivity is estimated by comparing functional potency (cAMP generation) in CHO-PO cells transiently expressing rat VPAC1 or rat VPAC2 receptors. CHO-PO cells transiently expressing rat VPAC1 or VPAC2, are seeded with 10,000 cells/well three days before the assay. The cells are kept in 200 μL culture medium. […] The stimuli are present for 30 minutes. The assay buffer is then gently removed.

[2] = values >100% may represent release of intact peptide from the PEG conjugate

C6-HSDAVFTEQY(OMe)TOrnLRAibQVAK(CO(CH2)2SPEG40K)AibOrnYLQSIOrnOrnGGPSSGAPPPS-NH2 (HSDAVFTEQYTXLRXQVAXXXYLQSIXXGGPSSGAPPPS; non-natural residues) [Agonist P432]
Estimated serum stability (%) [1, 2]: 102.1% | IC50 (human VPAC1): > 3000 nM | EC50 (human VPAC2): 20.1 nM | EC50 (rat VPAC2 receptor): 16.7 nM

C6-HSDAVFTDNYTOrnLRAibQVAAAibKYLQC(PEG40K)IOrnNOrnGGPSSGAPPPS (HSDAVFTDNYTXLRXQVAAXKYLQCIXNXGGPSSGAPPPS; non-natural residues) [Agonist P373]
Estimated serum stability (%) [1, 2]: 73.6% | Estimated 72 h stability (%) ([1]; after 72 h in rat serum at 37 C, values >100% may represent release of intact peptide from the PEG conjugate): 47.1% | IC50 (human VPAC1): > 25000 nM | EC50 (human VPAC2): 33.9 nM | EC50 (rat VPAC2 receptor): 72.2 nM

C6-HDAVFTEQY(OMe)TOrnLRAibQVAAAibOrnYLQSIOrnOrnGGPSSGAPPPC(PEG60K)-NH2 [Agonist P404]
Estimated serum stability (%) [1, 2]: 320.7% | IC50 (human VPAC1): > 3000 nM | EC50 (human VPAC2): 17 nM | EC50 (rat VPAC2 receptor): 24.4 nM

P137: PEGylated material obtained from P120 and methoxy-PEG2-MAL-40K (HSDAVFTDNYTRLRKQVAAKKYLQSIKNKRYGGPSSGAPPPC; also: PEGylated with methoxy-PEG2-MAL-40K, site not given here) [Agonist P137]
Estimated 72 h stability (%) [1]: 52.8% | IC50 (human VPAC1): 853 nM | EC50 (human VPAC2): 8.31 nM | EC50 (rat VPAC2 receptor): 8 nM
